Common to all, as to type: binding
In assay [1] the target is T1, FAM19A5 mutants M1 to M8 (Homo sapiens, UniProt Q7Z5A7).
T1 construct: made in house; host or cells: phage display with helper phage
Description: Epitope mapping ELISA with FAM19A5 mutants M1-M8. The protocol: (§1) To further characterize the binding epitopes of the anti-FAM19A5 antibodies disclosed in the present disclosure, the amino acid sequences for the different FAM19 family members (i.e., FAM19A1-5) were aligned. […] The amino acid sequences of these regions were replaced with the consensus sequence of the corresponding regions for the FAM19A1-4 proteins. See Table 13 (the mutated amino acid residues are bolded and underlined).
(§2) The mutant FAM19A5-expressing phages were prepared as follows. To prepare the media for phage culture, 55.6 ml of 2M Glucose (D-(+)-Glucose, Sigma), 5 mL of 1M MgCl2 (Magnesium chloride, Junsei) 1 mL of 34 mg/mL chloramphenicol (Sigma) were added to 2×YT media. Colonies obtained through mono-phage ELISA were selected and placed in 5 mL of prepared media (2×YT-GMC) to be cultured for 16 hours at 37° C. with shaking incubator (VS-8480, Vision). 100 μL of each culture was transferred to 10 mL 2×YT-GMC individually which were cultured at 37° C. in the incubator until detection value at O.D. 600 nm reached 0.5. Once detection value has reached 0.5 at O.D. 600 nm, 5 mL of each culture were obtained as samples to be infected. Following sample preparation, 50 μL of […] was added to individual samples then incubated at 37° C. without shaking for 30 minutes and with shaking for additional 30 minutes. Individual cultures were centrifuged for 15 minutes at 3,850 rpm using Micro centrifuge (Micro12, Hanil). The supernatants of centrifuged cultures were removed to be kept separate and replaced with 5 mL of 2×YT media containing 1 mL of IM IPTG (AG Scientific), 5 mL of 1M MgCl2.1 ml of 70 μg/μL kanamycin (Biopure) and 1 mL of Chloramphenicol. The resulting pellets were dispersed thoroughly in newly added media followed by incubation at 30° C. for 16 hours with stirring.

Assay [2] concerns the target T2, FAM19A5 mutants M1 to M8 (Homo sapiens, UniProt Q7Z5A7, D109K/G107E/I112P/L110T/N113D/R114N).
T2 construct: made in house; host or cells: phage display with helper phage
Description: Epitope mapping ELISA with FAM19A5 mutants M1-M8. As to the method: as §1, §2
Background: In an ELISA, binding on a coated surface is turned into a signal by an enzyme label.

A further assay has as its target FAM19A5 antigen (Homo sapiens, UniProt Q7Z5A7). Briefly: Cross-competition two-site sandwich ELISA. The following applies: antibodies 1-65, P2-A03, P2-F11, 13B4, 2-13, 3-2; cross-competition = S/N ratio lower than 2. The protocol: The term “S/N” refers to the signal to noise ratio, which is measured as follows: [O.D. of 10 ng/ml antigen]/[O.D. of 0 ng/ml antigen].
Next, a two-site sandwich ELISA was used as described below to assess whether the different anti-FAM19A5 antibodies with similar binding epitopes cross-compete with each other.
First, the indicated anti-FAM19A5 antibodies were diluted in 1×PBS to a concentration of 10 μg/mL. The diluted anti-FAM19A5 antibodies (10 μg/mL in 1×PBS) (“capture antibody”) were used to coat the 96-well plates (100 μL/well) at 37° C. for approximately 1 hour. After the incubation, the plates were washed with the washing buffer (0.01% Tween-20/PBS; also called 0.01% PBST) for a total of five washes, blocked with the blocking solution (5% BSA/PBS; also called 5% PBSA) (250 μL/well) for one hour at 37° C., and then washed again. Next, 100 μg/mL of the FAM19A5 antigen (diluted in PBS containing 5% BSA, 0.01% Tween-20; also called 5% PBSAT; “diluent buffer) was added to each of the wells, and the 96-well plates were incubated for 2 hours at 37° C. After the incubations, the plates were washed using 0.01% PBST for a total of five washes. After the final wash, the indicated biotinylated anti-FAM19A5 antibodies (“detection antibody”) (diluted to lug/mL in 5% PBSAT) were added to the relevant wells (100 μL volume) and the plates were incubated for an additional 1 hour at 37° C. Afterwards, the plates were washed again with 0.01% PBST (five total washes). Next, 100 μL of the diluted (1/2000 in 5% PBSAT) Streptavidin-HRP (1 mg/mL, Sigma, USA) was added to the wells, and the plates were incubated for 30 minutes at room temperature. The plates were then washed and treated with 100 μL of the TMB substrate ([…], Thermo Fisher Scientific). After an additional 30-minute incubation at room temperature, the color change reaction was induced by the addition of the TMB substrate. This reaction was stopped using 50 μL of sulfuric acid (2N H2SO4), and the extent of color change was detected via absorption at 450 nm with reference wavelength at 620 nm using a 96 well microplate reader (Molecular Device).

T1 sequence (Q7Z5A7 with tags, fused parts or gaps isoform Q7Z5A7-2, change not shown): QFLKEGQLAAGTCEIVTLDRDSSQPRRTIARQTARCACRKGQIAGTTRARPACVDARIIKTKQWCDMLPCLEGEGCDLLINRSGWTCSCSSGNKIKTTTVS
FAM19A5 antigen, sequence (Q7Z5A7 44-132): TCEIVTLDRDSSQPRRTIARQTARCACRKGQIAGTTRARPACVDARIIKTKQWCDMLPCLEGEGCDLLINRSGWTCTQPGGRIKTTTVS
T2 sequence (Q7Z5A7 26-125 isoform Q7Z5A7-2 G100E/D102K/L103T/I105P/N106D/R107N): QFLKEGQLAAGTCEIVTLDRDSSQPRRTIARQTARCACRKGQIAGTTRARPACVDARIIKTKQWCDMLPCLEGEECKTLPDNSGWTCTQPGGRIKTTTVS

B1: P2-A01: anti-FAM19A5 antibody; VH SEQ ID NO: 162, VL SEQ ID NO: 173 (antibody, V domains shown)
VH: QEQLVESGGRLVTPGTPLTLSCTASGFFLSGYYMSWVRQAPGKGLEWIGIIYPSGSTDYASWAKGRFTISKTSTTVDLKITTPTTEDTATYFCARVAGYVGYGYETFFDIWGPGTLVTVSL
VL: ELVMTQTPPSLSASVGETVRIRCLASEDIYSGISWYQQKPGKPPTLLIYGASNLESGVPPRFSGSGSGSDYTLTIGGVQAEDAATYYCLGGVTYSSTGTHLTFGAGTNVEIK
modifications: P2-A01 VH; P2-A01 VL
Regarding B1, in the assay with FAM19A5 mutants M1 to M8 [1], the “binding to FAM19A5 mutant M8” value is recorded as “failed to bind”.

B2: P2-F07: anti-FAM19A5 antibody; VH SEQ ID NO: 164, VL SEQ ID NO: 175 (antibody, V domains shown)
VH: QSLEESGGRLVTPGTPLTLTCTASGFSLSSYYMNWVRQAPGKGLEWIGIIYPSGTTYYAGWAKGRFTISKTSTTVDLKITSPTSEDTATYFCARTVSGYFDIWGPGTLVTVSL
VL: ELDLTQTPPSLSASVGGTVTINCLASEDIYSALAWYQQKPGKPPTLLISGTSNLESGVPPRFSGSGSGTDYTLTIGGVQAEDAATYFCQGYSSYPLTFGAGTNVEIK
modifications: P2-F07 VH; P2-F07 VL
In the case of B2, the “binding to FAM19A5 mutant M8” value with FAM19A5 mutants M1 to M8 [1] is “failed to bind”.

B3: 15A9: anti-FAM19A5 antibody; VH SEQ ID NO: 158, VL SEQ ID NO: 169 (antibody, V domains shown)
VH: QVQLQESGPGLVKPSETLSLTCTVSGGSISSYYWSWIRQPPGKGLEWIGYIYPSGSTNYNPSLKSRVTISVDTSKNQFSLNLKSVTAVDTAVYYCARVNPFGYYYAMDVWGQGTTVTVSS
VL: DIQMTQSPSSLSASVGDRITISCRASQSISTSLNWYQQTPGKAPRLLIYGASTLQSGVPSRFSGGGSGTDFSLTITSLQPEDFATYYCQESASIPRTFGQGTKLDIK
modifications: 15A9 VH; 15A9 VL
Take B3: in the assay with FAM19A5 mutants M1 to M8 [1], the “binding to FAM19A5 mutant M8” value is “failed to bind”. The “binding to FAM19A5 mutant M7” value in the assay with FAM19A5 mutants M1 to M8 [2] was “reduced binding”.

B4: P2-A03: anti-FAM19A5 antibody; VH SEQ ID NO: 163, VL SEQ ID NO: 174 (antibody, V domains shown)
VH: QSVEESGGRLVTPGTPLTLTCTVSGFSLNNYDMSWVRQAPGKGLEYIGFMDTDGSAYYATWAKGRFTISRTSTTVDLKMTSPTTEDTATYFCARRGSSYYGGIDIWGPGTPVTVSL
VL: ELDLTQTPASVSEPVGGTVTIKCQASQSIGGNLAWYQQKPGQPPKLLIYRASTLASGVPSRFKGSGSGTDFTLTISDLECADAATYYCQSPAYDPAAYVGNAFGGGTELEIL
modifications: P2-A03 VH; P2-A03 VL
Take B4: the “binding to FAM19A5 mutant M8” value in the assay with FAM19A5 mutants M1 to M8 [1] was “failed to bind”. Also, in the assay with FAM19A5 antigen, the “cross-competition with the other anti-FAM19A5 antibodies” value is “cross-competed with one another”.

B5: P2-F11: anti-FAM19A5 antibody; VH SEQ ID NO: 165, VL SEQ ID NO: 176 (antibody, V domains shown)
VH: QEQLVESGGRLVTPGTTLTLTCTVSGFSLSSYGVSWVRQAPGKGLEWIGYIANNYNPHYASWAKGRFTISKTSSTTVDLKMTSLTTEDTATYFCARDNYGMDPWGPGTLVTVSS
VL: ELDLTQTPSSVSAAVGGTVTINCQASQSVYNNKNLAWYQQKPGQPPKLLIYAASTLASGVSSRFKGSGSGTQFTLTISDVQCDDAATYYCQGEFSCSSADCNAFGGGTELEIL
modifications: P2-F11 VH; P2-F11 VL
As for B5, the “binding to FAM19A5 mutant M8” value with FAM19A5 mutants M1 to M8 [1] is reported as “failed to bind”. For the same molecule, the “cross-competition with the other anti-FAM19A5 antibodies” value in the assay with FAM19A5 antigen is “cross-competed with one another”.

B6: P1-F02: anti-FAM19A5 antibody; VH SEQ ID NO: 161, VL SEQ ID NO: 172 (antibody, V domains shown)
VH: QSLEESGGRLVTPGTPLTLTCTASGFSLSNYYMGWVRQAPGEGLEWIGIIYASGSTYYASWAKGRFTISKTSTTVDLKMTSLTTEDTATYFCARIDIGVGDYGWAYDRLDLWGQGTLVTVSS
VL: ELDMTQTPPSLSASVGETVRIRCLASEDIYSGISWYQQKPGKPPTLLIYGASNLESGVPPRFSGSGSGTDYTLTIGGVQAEDAATYYCLGGYSYSSITFGAGTNVEIK
modifications: P1-F02 VH; P1-F02 VL
Regarding B6, the “binding to FAM19A5 mutant M8” value with FAM19A5 mutants M1 to M8 [1] is “failed to bind”.

B7: 13F7: anti-FAM19A5 antibody; VH SEQ ID NO: 157, VL SEQ ID NO: 168 (antibody, V domains shown)
VH: QVQLQEWGAGLLKPSETLSLTCAINAESFNGYSWTWIRQTPGKGLEWIGEISHFGSANYNPSLKSRATISADKSKNQFSLKLTSVTAVDTAVYYCARALRGTYSRFYYGMDVWGQGTTVTVSS
VL: DIVMTQTPLSLPVAPGEPASISCRSSQSLLHSNGYNYLDWYVQKPGQPPQLLIYLGSNRASGVPDRFSGSGSGTDFTLKISRVEAEDVGVYYCMQARQTPLTFGGGTKVEIK
modifications: 13F7 VH; 13F7 VL
Turning to B7, the “binding to FAM19A5 mutant M8” value with FAM19A5 mutants M1 to M8 [1] is “failed to bind”. Also, the “binding to FAM19A5 mutant M7” value with FAM19A5 mutants M1 to M8 [2] is reported as “reduced binding”.

B8: P1-A08: anti-FAM19A5 antibody; VH SEQ ID NO: 160, VL SEQ ID NO: 171 (antibody, V domains shown)
VH: QSLEESGGRLVTPGTPLTLTCTASGFSLSTYYMSWVRQAPGKGLEWIGIVYPSGTTYYANWAKGRFTISTASTTVDLMITSPTTEDTATYFCARGDSFGYGLWGPGTLVTVSS
VL: ELVLTQSPSVQVNLGQTVSLTCTADTLSRSYASWYQQKPGQAPVLLIYRDTSRPSGVPDRFSGSSSGNTATLTISGAQAGDEADYYCATSDGSGSNYQYVFGGGTQLTVT
modifications: P1-A08 VH; P1-A08 VL
For the molecule B8, the “binding to FAM19A5 mutant M8” value with FAM19A5 mutants M1 to M8 [1] was “failed to bind”.

The record behind these values is patent US20260265360A1, “USE OF ANTI-FAM19A5 ANTAGONISTS FOR TREATING HEARING DISORDERS” (NEURACLE SCIENCE CO., LTD., priority 2023, published 2026).
